Source: paper PMC4464295, “Orthogonal dual-modification of proteins for the engineering of multivalent protein scaffolds” (Beilstein Journal of Organic Chemistry, 2015)

T1: Erythrina cristagalli lectin (Erythrina cristagalli, UniProt P83410 1-239)
T1 construct: also called ECL
T1 sequence (looked up): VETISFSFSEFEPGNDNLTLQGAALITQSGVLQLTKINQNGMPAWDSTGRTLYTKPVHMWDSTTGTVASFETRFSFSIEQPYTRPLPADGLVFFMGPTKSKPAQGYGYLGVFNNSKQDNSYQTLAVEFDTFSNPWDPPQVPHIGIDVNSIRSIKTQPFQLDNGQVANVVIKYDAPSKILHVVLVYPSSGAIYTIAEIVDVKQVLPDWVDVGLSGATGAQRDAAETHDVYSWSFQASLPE


Target: T1, Erythrina cristagalli lectin
Assay: SPR; BiacoreX; biotinylated TTL sample on streptavidin chip loaded to one third; at least five ECL concentrations (Gal-0 once at 100 µM ECL); equilibrium binding, Langmuir isotherm fit; KDs determined twice
Settings: both partners purified

| Kd | Binder |
| --- | --- |
| 70 µM | Biotinylated thermophilic lipase from Thermoanaerobacter thermohydrosulfuricus with azidohomoalanine, carrying 1-2 galactose units (Gal-1) (enzyme, all Met replaced by azidohomoalanine (Aha), nine Aha residues; N-terminal Met/Aha excised; N-terminal Ser (Ser2) oxidised with NaIO4 to the aldehyde and joined to biotin hydroxylamine 1 by oxime ligation; 1-2 Aha residues joined to butynyl galactose 2 by CuAAC (positions not given)) SQKAVEITYNGKTLRGMMHLPDDVKGKVPMVIMFHGFTGNKVESHFIFVKMSRALEKVGIGSVRFDFYGSGESDGDFSEMTFSSELEDARQILKFVKEQPTTDPERIGLLGLSMGGAIAGIVAREYKDEIKALVLWAPAFNMPELIMHESVKQYGAIMEQLGFVDIGGHKLSKDFVEDISKLNIFELSKGYDKKVLIVHGTNDEAVEYKVSDRILKEVYGDNATRVTIENADHTFKSLEWEKKAIEESVEFFKKELLKG |
| 60 µM | Biotinylated thermophilic lipase from Thermoanaerobacter thermohydrosulfuricus with azidohomoalanine, carrying 3-4 galactose units (Gal-3) (enzyme, all Met replaced by azidohomoalanine (Aha), nine Aha residues; N-terminal Met/Aha excised; N-terminal Ser (Ser2) oxidised with NaIO4 to the aldehyde and joined to biotin hydroxylamine 1 by oxime ligation; 3-4 Aha residues joined to butynyl galactose 2 by CuAAC (positions not given; two found by MS/MS, Table S5)) SQKAVEITYNGKTLRGMMHLPDDVKGKVPMVIMFHGFTGNKVESHFIFVKMSRALEKVGIGSVRFDFYGSGESDGDFSEMTFSSELEDARQILKFVKEQPTTDPERIGLLGLSMGGAIAGIVAREYKDEIKALVLWAPAFNMPELIMHESVKQYGAIMEQLGFVDIGGHKLSKDFVEDISKLNIFELSKGYDKKVLIVHGTNDEAVEYKVSDRILKEVYGDNATRVTIENADHTFKSLEWEKKAIEESVEFFKKELLKG |
